Reference: patent publication US20050048606A1 (AGENCY FOR SCIENCE TECHNOLOGY AND RESEARCH, published 2005)

Target: TrkA (rat (endogenous in PC12 rat …, UniProt P35739 33-799))
Experiment: cell-based or functional assay

Sequence of TrkA (rat (P35739 33-799): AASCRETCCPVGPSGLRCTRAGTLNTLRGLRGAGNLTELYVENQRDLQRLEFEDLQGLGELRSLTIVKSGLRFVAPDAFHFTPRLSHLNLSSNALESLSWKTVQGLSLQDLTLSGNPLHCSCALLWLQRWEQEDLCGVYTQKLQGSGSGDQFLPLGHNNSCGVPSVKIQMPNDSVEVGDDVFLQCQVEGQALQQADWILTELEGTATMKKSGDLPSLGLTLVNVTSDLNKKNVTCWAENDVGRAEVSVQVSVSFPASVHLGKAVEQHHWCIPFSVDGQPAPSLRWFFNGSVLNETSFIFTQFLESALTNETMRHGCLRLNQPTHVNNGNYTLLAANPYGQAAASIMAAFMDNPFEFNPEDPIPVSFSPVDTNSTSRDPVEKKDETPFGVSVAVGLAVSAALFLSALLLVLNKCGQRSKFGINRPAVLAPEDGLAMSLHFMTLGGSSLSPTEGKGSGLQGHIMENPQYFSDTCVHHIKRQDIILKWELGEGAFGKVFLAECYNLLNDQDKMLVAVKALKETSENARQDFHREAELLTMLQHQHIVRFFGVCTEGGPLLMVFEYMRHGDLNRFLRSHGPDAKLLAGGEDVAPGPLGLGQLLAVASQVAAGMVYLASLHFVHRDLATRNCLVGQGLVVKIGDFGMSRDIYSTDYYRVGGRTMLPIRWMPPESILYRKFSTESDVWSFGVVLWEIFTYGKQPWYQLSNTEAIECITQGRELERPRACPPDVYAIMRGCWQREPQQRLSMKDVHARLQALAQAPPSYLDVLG

B1: SPKR4NL1-2 (other)
chain: MGHHHHHHHHHHSSGHIEGRHMSPKRSPKRSPKRSPKRGGTYLSEDELKAAEAAFKRHNPTGSCSVSVWVGDKTTATDIKGKEVMVLGEVNINNSVFKQYFFETKCRDPNPVDSG
modifications: disulfide bridge intended between the added Cys and the Cys corresponding to C58 of NGF
increase in gene expression in PC12 cells, SPKR4NL1-2 group against (SPKR)4 group (luciferase): 1400 fold
